Test results taken from article PMC4506499.

What was measured:
[1] = target: T1, Human Upf1-CH-HD (115-914 amino acids) (human) (UniProt Q92900)
T1 sequence: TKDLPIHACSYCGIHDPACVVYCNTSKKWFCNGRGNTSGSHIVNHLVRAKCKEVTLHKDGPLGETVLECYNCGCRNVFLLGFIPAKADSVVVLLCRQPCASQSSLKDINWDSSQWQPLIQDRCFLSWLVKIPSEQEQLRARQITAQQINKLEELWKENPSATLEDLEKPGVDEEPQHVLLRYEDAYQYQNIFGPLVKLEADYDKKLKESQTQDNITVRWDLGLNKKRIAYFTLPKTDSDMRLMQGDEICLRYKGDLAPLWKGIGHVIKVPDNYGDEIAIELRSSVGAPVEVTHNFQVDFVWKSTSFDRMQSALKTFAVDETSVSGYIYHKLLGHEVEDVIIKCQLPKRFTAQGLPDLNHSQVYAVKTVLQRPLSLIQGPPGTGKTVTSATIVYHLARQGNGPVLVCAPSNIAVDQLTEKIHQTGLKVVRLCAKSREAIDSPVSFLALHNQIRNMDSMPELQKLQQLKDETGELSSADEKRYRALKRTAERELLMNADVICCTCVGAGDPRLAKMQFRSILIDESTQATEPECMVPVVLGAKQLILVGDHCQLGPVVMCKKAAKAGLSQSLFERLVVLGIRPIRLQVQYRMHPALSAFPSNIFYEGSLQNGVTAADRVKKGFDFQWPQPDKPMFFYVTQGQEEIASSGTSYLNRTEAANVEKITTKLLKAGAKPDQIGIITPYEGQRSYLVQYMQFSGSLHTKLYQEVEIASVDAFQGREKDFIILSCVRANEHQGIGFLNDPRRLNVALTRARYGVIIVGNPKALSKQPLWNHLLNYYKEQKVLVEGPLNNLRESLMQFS

[2] = target: T1, Human Upf1-CH-HD (115-914 amino acids) (human); remark: listed apart in the source
[3] = target: T1, Human Upf1-CH-HD (115-914 amino acids) (human); remark: listed apart in the source

## Human Upf2 (761-1227 amino acids) (from UniProt Q9HAU5 761-1227) (domain or fragment)
[1]
  activity ratio Ac=u/(u+b) (unwinding events over unwinding plus binding events), magnetic tweezers on a DNA hairpin; Upf1-CH-HD alone Ac=49%: 81%
[2]
  share of Upf1-CH-HD/Upf2 binding events with a normal rising edge but a falling edge interrupted by blocking (magnetic tweezers, DNA hairpin): 76%
[3]
  processivity factor fp (enzymes reaching the hairpin apex over total bursts), magnetic tweezers on the 1.2 kb DNA hairpin (fraction (24 of 25 bursts)): 0.96
